Read-outs that look alike come from different tables or passages of the source.
Legend:
Assay in all cases: SPR Biacore T200, antibody captured by anti-His, albumin as analyte
[1] = molecular target: human serum albumin (HSA) (human)
Protocol: (§1) The affinity constants of the 6His-tagged humanized anti-HSA antibodies for human, monkey and mouse albumins were determined using a Biacore T200 (GE Healthcare) instrument. Firstly, amino coupling was performed on a CM5 S series chip (GE, Cat. 29-1049-88) by using an amino coupling kit (GE, Cat. BR-1000-50) and a His capture kit (GE, Cat. 28-9950-56) according to the kit manuals. The surface response value reached about 10000 RU. The chip was then blocked with ethanolamine for later use. The 6His-tagged humanized anti-HSA antibodies were each captured onto the anti-his chip through affinity. Then, different concentrations of human, monkey and mouse albumins were flowed over the surface of the chip, and the reaction signals were detected in real-time using the Biacore instrument to obtain the association and dissociation curves. Finally, fitting was performed with a Langmuir 1:1 binding model using BIAevaluation version 4.1, GE software to obtain the affinity constants. The buffer used in the experiment was an HBS-EP solution (10 mM HEPES, 150 mM NaCl, 3 mM EDTA, 0.05% P20, pH 7.4, GE, Cat. #BR-1006-69). After the end of each cycle, the chip was regenerated using glycine-hydrochloric acid (pH 1.5) (GE, Cat. #BR-1003-54).

[2] = molecular target: T1, monkey serum albumin (CySA) (monkey)
T1 chain: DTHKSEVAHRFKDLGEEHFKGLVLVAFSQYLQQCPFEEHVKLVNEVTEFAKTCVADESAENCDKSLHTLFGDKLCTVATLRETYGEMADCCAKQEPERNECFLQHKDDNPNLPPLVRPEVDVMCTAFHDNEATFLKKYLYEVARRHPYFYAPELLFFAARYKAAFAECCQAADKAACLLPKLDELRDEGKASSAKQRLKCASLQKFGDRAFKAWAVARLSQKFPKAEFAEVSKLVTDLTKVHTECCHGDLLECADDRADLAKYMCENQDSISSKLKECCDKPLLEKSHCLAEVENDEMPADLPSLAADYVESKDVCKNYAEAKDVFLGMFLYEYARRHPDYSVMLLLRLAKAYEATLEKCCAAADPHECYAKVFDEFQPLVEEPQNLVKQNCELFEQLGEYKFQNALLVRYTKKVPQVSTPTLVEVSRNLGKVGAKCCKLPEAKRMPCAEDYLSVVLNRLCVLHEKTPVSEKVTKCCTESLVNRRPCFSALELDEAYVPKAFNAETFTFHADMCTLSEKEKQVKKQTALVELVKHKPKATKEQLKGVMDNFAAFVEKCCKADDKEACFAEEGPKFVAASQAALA
Protocol: as §1

[3] = molecular target: mouse serum albumin (mSA) (mouse)
Protocol: as §1

[4] = molecular target: human serum albumin (HSA) (human); remark: listed apart in the source
Protocol: (§2) The anti-HSA antibody 7_Hu_10-6his was transiently expressed in HEK293E cells. After affinity purification with a nickel column, the affinity constants of the antibody for human, monkey, mouse, rat, dog and rabbit albumins were determined using a Biacore T200 (GE Healthcare) instrument. Firstly, amino coupling was performed on a CM5 S series chip (GE, Cat. 29-1049-88) by using an amino coupling kit (GE, Cat. BR-1000-50) and a His capture kit (GE, Cat. 28-9950-56) according to the kit manuals. The surface response value reached about 10000 RU. The chip was then blocked with ethanolamine for later use. The 6His-tagged humanized anti-HSA antibodies were each captured onto the anti-his chip through affinity. Then, different concentrations of human, monkey, mouse, rat, dog and rabbit albumins were flowed over the surface of the chip, and the reaction signals were detected in real-time using the Biacore instrument to obtain the association and dissociation curves. Finally, fitting was performed with a Langmuir 1:1 binding model using BIAevaluation version 4.1, GE software to obtain the affinity constants. The buffer used in the experiment was an HBS-EP solution (10 mM HEPES, 150 mM NaCl, 3 mM EDTA, 0.05% P20, pH 7.4, GE, Cat. #BR-1006-69). 20 After the end of each cycle, the chip was regenerated using glycine-hydrochloric acid (pH 1.5) (GE, Cat. #BR-1003-54).

[5] = molecular target: T1, monkey serum albumin (CySA)
Protocol: as §2

[6] = molecular target: mouse serum albumin (mSA) (mouse); remark: listed apart in the source
Protocol: as §2

rat serum albumin = molecular target: T2, rat serum albumin (rat)
T2 chain: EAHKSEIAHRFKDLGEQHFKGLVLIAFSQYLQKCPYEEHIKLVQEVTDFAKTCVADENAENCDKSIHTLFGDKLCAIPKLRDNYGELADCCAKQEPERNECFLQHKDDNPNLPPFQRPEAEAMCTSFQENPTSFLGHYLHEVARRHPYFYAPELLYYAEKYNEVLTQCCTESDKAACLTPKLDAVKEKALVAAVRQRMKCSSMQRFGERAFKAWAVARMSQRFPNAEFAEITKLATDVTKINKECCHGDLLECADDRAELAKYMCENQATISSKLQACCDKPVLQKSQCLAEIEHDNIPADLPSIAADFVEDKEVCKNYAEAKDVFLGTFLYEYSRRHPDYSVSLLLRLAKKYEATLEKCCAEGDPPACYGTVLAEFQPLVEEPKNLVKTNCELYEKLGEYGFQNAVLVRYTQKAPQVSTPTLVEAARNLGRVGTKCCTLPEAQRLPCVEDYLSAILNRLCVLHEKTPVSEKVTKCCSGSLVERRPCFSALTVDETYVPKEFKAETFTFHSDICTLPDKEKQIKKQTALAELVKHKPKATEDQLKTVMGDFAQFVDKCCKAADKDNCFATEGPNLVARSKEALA
Protocol: as §2

dog serum albumin = molecular target: T3, dog serum albumin (dog, UniProt P49822 25-608)
T3 construct: also called Dog SA; dog albumin
Protocol: as §2

rabbit serum albumin = molecular target: T4, rabbit serum albumin (rabbit, UniProt P49065 25-608)
T4 construct: also called Rabbit SA; rabbit albumin
Protocol: as §2

Kd [1]: 11.5 nM | koff [1]: 0.000347 s⁻¹ | kon [1]: 30100 M⁻¹ s⁻¹ | Kd [2]: 31 nM | koff [2]: 0.000545 s⁻¹ | kon [2]: 17600 M⁻¹ s⁻¹ | Kd [3]: 328 nM | koff [3]: 0.0196 s⁻¹ | kon [3]: 59700 M⁻¹ s⁻¹ | Kd [4]: 10.6 nM | koff [4]: 0.000683 s⁻¹ | kon [4]: 64700 M⁻¹ s⁻¹ | Kd [5]: 14.5 nM | koff [5]: 0.000697 s⁻¹ | kon [5]: 47900 M⁻¹ s⁻¹ | Kd [6]: 653 nM | koff [6]: 0.0254 s⁻¹ | kon [6]: 38900 M⁻¹ s⁻¹ | Kd (rat serum albumin): 158 nM | koff (rat serum albumin): 0.00461 s⁻¹ | kon (rat serum albumin): 29200 M⁻¹ s⁻¹ | Kd (dog serum albumin): 342 nM | koff (dog serum albumin): 0.0211 s⁻¹ | kon (dog serum albumin): 61700 M⁻¹ s⁻¹ | binding result (rabbit serum albumin): no binding
B1: #7_Hu_10-6His (VHH)
VHH: EVQLLESGGGLVQPGGSLRLSCAASGFTFLTSCMGWFRQAPGKEREGVSSIYTVGGSTFYTNSVKGRFTISRDNSKNTLYLQMNSLRAEDTAVYYCAAGSPARCRLRDPTTFDYWGQGTLVTVSS

— patent publication US20250312444A1 (BEIJING TUO JIE BIOPHARMACEUTICAL, published 2025)
